Measurements published in patent publication US20240409647A1 (SINOMAB BIOSCIENCE, published 2024).

Tests used:
[1] = target: T1, human IL-17RB protein (recombinant, R&D systems) (human); test: ELISA, coated receptor; SM17 at 0.08 µg/mL; well 2
T1 construct: Bought protein; also called hIL17RB
T1 sequence (Q9NRM6 whole entry, looked up): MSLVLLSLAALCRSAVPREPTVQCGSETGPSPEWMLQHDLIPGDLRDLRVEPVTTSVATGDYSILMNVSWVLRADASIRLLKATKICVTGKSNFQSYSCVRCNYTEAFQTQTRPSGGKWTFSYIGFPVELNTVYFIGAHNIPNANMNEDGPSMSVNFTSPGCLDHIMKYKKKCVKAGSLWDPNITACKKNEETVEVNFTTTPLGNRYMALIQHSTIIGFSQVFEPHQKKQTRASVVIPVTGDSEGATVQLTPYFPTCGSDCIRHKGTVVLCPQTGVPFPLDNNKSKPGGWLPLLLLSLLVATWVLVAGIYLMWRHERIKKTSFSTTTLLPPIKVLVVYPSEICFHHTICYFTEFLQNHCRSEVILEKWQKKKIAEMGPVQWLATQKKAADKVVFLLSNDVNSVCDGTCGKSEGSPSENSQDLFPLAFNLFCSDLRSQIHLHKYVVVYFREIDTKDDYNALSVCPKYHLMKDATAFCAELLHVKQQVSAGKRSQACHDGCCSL

[2] = target: T2, human IL-17 receptor subunit A (human, UniProt Q96F46 33-320); test: ELISA, coated receptor; SM17 at 0.08 µg/mL; well 2
T2 construct: also called IL17RA; hIL17RA

[3] = target: T3, human IL-17 receptor subunit C (human, UniProt Q8NAC3-2 21-467, limits assumed); test: ELISA, coated receptor; SM17 at 0.08 µg/mL; well 2
T3 construct: also called IL17RC; hIL17RC
T3 sequence (looked up): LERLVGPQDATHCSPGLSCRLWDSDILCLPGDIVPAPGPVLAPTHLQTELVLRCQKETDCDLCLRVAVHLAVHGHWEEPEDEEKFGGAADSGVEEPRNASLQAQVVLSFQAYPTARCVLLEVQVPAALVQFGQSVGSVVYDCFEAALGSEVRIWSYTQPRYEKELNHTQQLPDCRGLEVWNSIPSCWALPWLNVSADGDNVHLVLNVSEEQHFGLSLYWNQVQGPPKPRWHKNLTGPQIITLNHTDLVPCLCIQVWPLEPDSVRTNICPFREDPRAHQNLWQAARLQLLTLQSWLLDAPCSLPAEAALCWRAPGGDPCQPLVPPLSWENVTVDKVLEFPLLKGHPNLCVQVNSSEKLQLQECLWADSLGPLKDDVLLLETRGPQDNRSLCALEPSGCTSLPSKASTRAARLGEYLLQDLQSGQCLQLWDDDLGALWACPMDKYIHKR

[4] = target: T4, human IL-17 receptor subunit D (human, UniProt Q8NFM7 28-299, limits assumed); test: ELISA, coated receptor; SM17 at 0.08 µg/mL; well 2
T4 construct: also called IL17RD; hIL 17RD
T4 sequence (looked up): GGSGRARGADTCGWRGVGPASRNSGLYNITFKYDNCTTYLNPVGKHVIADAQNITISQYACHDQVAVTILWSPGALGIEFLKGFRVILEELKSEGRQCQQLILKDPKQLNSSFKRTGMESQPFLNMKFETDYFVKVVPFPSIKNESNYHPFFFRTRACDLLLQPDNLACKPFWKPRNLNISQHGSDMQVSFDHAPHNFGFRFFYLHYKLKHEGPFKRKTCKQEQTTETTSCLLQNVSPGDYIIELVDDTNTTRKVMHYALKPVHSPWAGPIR

[5] = target: T5, human IL-17 receptor subunit E (human, UniProt Q8NFR9 24-454, limits assumed); test: ELISA, coated receptor; SM17 at 0.08 µg/mL; well 2
T5 construct: also called hIL17RE
T5 sequence (looked up): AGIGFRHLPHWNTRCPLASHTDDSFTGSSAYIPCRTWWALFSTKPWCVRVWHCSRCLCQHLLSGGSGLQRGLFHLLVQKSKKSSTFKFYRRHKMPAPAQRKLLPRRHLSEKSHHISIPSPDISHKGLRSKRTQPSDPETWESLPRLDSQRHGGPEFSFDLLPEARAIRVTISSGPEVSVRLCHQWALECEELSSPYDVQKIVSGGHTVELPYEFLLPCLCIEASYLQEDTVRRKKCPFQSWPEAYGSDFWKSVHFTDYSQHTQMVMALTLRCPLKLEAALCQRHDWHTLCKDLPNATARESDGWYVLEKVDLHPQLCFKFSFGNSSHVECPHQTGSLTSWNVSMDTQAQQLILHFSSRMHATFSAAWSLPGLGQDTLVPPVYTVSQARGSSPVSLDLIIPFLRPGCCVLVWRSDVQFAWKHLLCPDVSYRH

[6] = target: T2, human IL-17 receptor subunit A; test: ELISA, coated receptor; SM17 at 0.00064 µg/mL; well 1
[7] = target: T3, human IL-17 receptor subunit C; test: as above
[8] = target: T4, human IL-17 receptor subunit D; test: as above
[9] = target: T5, human IL-17 receptor subunit E; test: as above
[10] = target: T1, human IL-17RB protein (recombinant, R&D …); test: BLI (Octet RED96), SM17 captured via anti-human Fab CH1, IL17RB in solution; trial 2
Description: Irrelevant antibody (SM03, anti-human CD22 chimeric IgG1 antibody, SinoMab BioScience Limited) was used as the control reference.

B1: SM17 (antibody, human IgG4 S228P, kappa, V domains shown)
VH: QVQLVQSGAEVKKPGASVKVSCKASGYTFISYWMNWVRQAPGQGLEWMGRIDPYDSEIQYNQKFKDRVTMTRDTSISTAYMELSRLRSDDTAVYYCARSGGFDWFAYWGQGTLVTVSS
VL: DIQMTQSPSSLSASVGDRVTITCRASENINSNLAWYQQKPGKAPKLLLYDVTNLADGVPSRFSGSGSGTDYTLTISSLQPEDFATYYCQHFWGPPYTFGGGTKVEIKR
notes: other paragraphs and claim 15 call the same entries VH and VL; also called humanized anti-IL17RB monoclonal antibody
OD 450 nm Absorption [1]: 0.64 OD450
OD 450 nm Absorption [2]: 0.06 OD450
OD 450 nm Absorption [3]: -0.02 OD450
OD 450 nm Absorption [4]: 0.01 OD450
OD 450 nm Absorption [5]: 0 OD450
OD 450 nm Absorption [6]: 0 OD450
OD 450 nm Absorption [7]: 0.13 OD450
OD 450 nm Absorption [8]: 0.08 OD450
OD 450 nm Absorption [9]: 0.09 OD450
Kd [10]: 546 pM
koff [10]: 9.98e-05 s⁻¹
kon [10]: 183000 M⁻¹ s⁻¹
